US20230365662A1
Values joined by “and” are separate entries in the source; they are usually repeats but may differ in a detail not shown here. Equal values may be shown once.

biological target: HRgpA-6H (Porphyromonas gingivalis) (UniProt P28784); assay: ELISA, FASEBA Fab on coated HRgpA-6H
Sequence of UniProt P28784 (P28784 228-991): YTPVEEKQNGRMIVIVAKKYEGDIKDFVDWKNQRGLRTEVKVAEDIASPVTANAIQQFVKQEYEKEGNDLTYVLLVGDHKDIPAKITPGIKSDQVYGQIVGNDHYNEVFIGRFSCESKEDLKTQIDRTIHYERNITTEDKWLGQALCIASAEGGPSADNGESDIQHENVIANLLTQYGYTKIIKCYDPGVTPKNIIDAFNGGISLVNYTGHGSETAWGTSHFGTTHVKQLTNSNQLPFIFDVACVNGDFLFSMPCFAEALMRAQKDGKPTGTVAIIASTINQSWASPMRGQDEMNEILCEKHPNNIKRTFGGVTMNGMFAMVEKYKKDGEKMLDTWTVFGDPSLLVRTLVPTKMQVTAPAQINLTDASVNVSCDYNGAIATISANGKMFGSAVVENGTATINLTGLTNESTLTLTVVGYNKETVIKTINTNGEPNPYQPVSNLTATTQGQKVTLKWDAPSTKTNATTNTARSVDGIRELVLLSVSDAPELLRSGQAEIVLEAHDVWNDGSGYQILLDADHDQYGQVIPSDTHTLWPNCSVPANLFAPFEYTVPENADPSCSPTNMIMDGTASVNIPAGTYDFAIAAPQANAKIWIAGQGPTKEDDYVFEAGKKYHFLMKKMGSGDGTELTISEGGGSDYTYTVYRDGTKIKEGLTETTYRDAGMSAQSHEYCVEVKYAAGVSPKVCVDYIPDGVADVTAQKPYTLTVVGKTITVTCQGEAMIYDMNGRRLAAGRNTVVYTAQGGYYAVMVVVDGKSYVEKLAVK

Binder	OD450nm	Ratio OD(Variant)/OD(WT)
KB001 mouse Fab VL S30G (Fab, V domains shown) VH: EVQLKQSGPGLVAPSQSLSITCTVSGFSLSIYSVHWVRQPPGKGLEWLGMIWGGGSSDYNSALKSRLSISKDNSKSQVFLKMNSLQTDDTAMYYCARNGNFYAMDYWGQGTSVTVSS VL: QIVLTQSPAIMSASLGERVTMTCTASSSVGSSFLHWYQQKPGSSPQLWIYSTSNLASGVPARFSGSGSGTSYSLTISSMEAEDAATYYCHQYHHSPYIYTFGGGTKLEIK	0.916 and 0.858	1.06 and 0.995
KB001 mouse Fab VL S31Y (Fab, V domains shown) VH: EVQLKQSGPGLVAPSQSLSITCTVSGFSLSIYSVHWVRQPPGKGLEWLGMIWGGGSSDYNSALKSRLSISKDNSKSQVFLKMNSLQTDDTAMYYCARNGNFYAMDYWGQGTSVTVSS VL: QIVLTQSPAIMSASLGERVTMTCTASSSVSYSFLHWYQQKPGSSPQLWIYSTSNLASGVPARFSGSGSGTSYSLTISSMEAEDAATYYCHQYHHSPYIYTFGGGTKLEIK	0.849	1
KB001 mouse Fab VL S51G (Fab, V domains shown) VH: EVQLKQSGPGLVAPSQSLSITCTVSGFSLSIYSVHWVRQPPGKGLEWLGMIWGGGSSDYNSALKSRLSISKDNSKSQVFLKMNSLQTDDTAMYYCARNGNFYAMDYWGQGTSVTVSS VL: QIVLTQSPAIMSASLGERVTMTCTASSSVSSSFLHWYQQKPGSSPQLWIYGTSNLASGVPARFSGSGSGTSYSLTISSMEAEDAATYYCHQYHHSPYIYTFGGGTKLEIK	0.915 and 0.777 and 0.851	1.05 and 0.888 and 0.973
KB001 mouse Fab VL S31T (Fab, V domains shown) VH: EVQLKQSGPGLVAPSQSLSITCTVSGFSLSIYSVHWVRQPPGKGLEWLGMIWGGGSSDYNSALKSRLSISKDNSKSQVFLKMNSLQTDDTAMYYCARNGNFYAMDYWGQGTSVTVSS VL: QIVLTQSPAIMSASLGERVTMTCTASSSVSTSFLHWYQQKPGSSPQLWIYSTSNLASGVPARFSGSGSGTSYSLTISSMEAEDAATYYCHQYHHSPYIYTFGGGTKLEIK	0.859 and 0.74 and 0.782	1.02 and 0.876 and 0.925
KB001 mouse Fab VL S31P (Fab, V domains shown) VH: EVQLKQSGPGLVAPSQSLSITCTVSGFSLSIYSVHWVRQPPGKGLEWLGMIWGGGSSDYNSALKSRLSISKDNSKSQVFLKMNSLQTDDTAMYYCARNGNFYAMDYWGQGTSVTVSS VL: QIVLTQSPAIMSASLGERVTMTCTASSSVSPSFLHWYQQKPGSSPQLWIYSTSNLASGVPARFSGSGSGTSYSLTISSMEAEDAATYYCHQYHHSPYIYTFGGGTKLEIK	0.87 and 0.875 and 0.856	1.03 and 1.04 and 1.01
KB001 mouse Fab VL S31E (Fab, V domains shown) VH: EVQLKQSGPGLVAPSQSLSITCTVSGFSLSIYSVHWVRQPPGKGLEWLGMIWGGGSSDYNSALKSRLSISKDNSKSQVFLKMNSLQTDDTAMYYCARNGNFYAMDYWGQGTSVTVSS VL: QIVLTQSPAIMSASLGERVTMTCTASSSVSESFLHWYQQKPGSSPQLWIYSTSNLASGVPARFSGSGSGTSYSLTISSMEAEDAATYYCHQYHHSPYIYTFGGGTKLEIK	0.903 and 0.798	1.07 and 0.944
KB001 mouse Fab VL T52A (Fab, V domains shown) VH: EVQLKQSGPGLVAPSQSLSITCTVSGFSLSIYSVHWVRQPPGKGLEWLGMIWGGGSSDYNSALKSRLSISKDNSKSQVFLKMNSLQTDDTAMYYCARNGNFYAMDYWGQGTSVTVSS VL: QIVLTQSPAIMSASLGERVTMTCTASSSVSSSFLHWYQQKPGSSPQLWIYSASNLASGVPARFSGSGSGTSYSLTISSMEAEDAATYYCHQYHHSPYIYTFGGGTKLEIK		1.17 and 1.08 (2×) and 0.993
KB001 mouse Fab VL S31F (Fab, V domains shown) VH: EVQLKQSGPGLVAPSQSLSITCTVSGFSLSIYSVHWVRQPPGKGLEWLGMIWGGGSSDYNSALKSRLSISKDNSKSQVFLKMNSLQTDDTAMYYCARNGNFYAMDYWGQGTSVTVSS VL: QIVLTQSPAIMSASLGERVTMTCTASSSVSFSFLHWYQQKPGSSPQLWIYSTSNLASGVPARFSGSGSGTSYSLTISSMEAEDAATYYCHQYHHSPYIYTFGGGTKLEIK	0.854 and 0.688 and 0.693	1.01 and 0.814 and 0.82
